# Results reported in the nanobody polyreactivity screen of Harvey et al. (2022).
# Assay: yeast display, Sf9 membrane polyspecificity reagent, FACS + sequencing; frameworks hold sequencing errors
# Summary of the method: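 After 36–48 hours of galactose induction, yeast (Saccharomyces cerevisiae BJ5465) displaying a synthetic nanobody library were stained at 4 °C for 1 hour with 10% biotinylated, detergent-solubilized Sf9 membrane reagent. Streptavidin microbeads enriched the stained cells before FACS sorting into low and high (top ~1%) gates on anti-HA and streptavidin fluorescence. Each clone's polyreactivity label reflects its gate of origin.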
row,Sequence,polyreactivity (PSR sort gate)
1,QVQLVESGGGLVQAGGSLRLSCAASGITFKGNAMGWYRQAPGKERELVAVITWSGGSTYYADSVKGRFTISRDNAKNTVYLQMNSLKPEDTAVYYCAKPWIYGDSQYDYWGQGTQVTVSS,low polyreactivity
2,QVQVVESGGGLVQAGGSLRLSCAASGSTFGHNAMGWYRQAPGKERELVAAIDSGDGTTYADSVKGRFTISRDNAKNTVYLQMNSLKPEDTAVYYCNADGLGGADPEYLWYPVPDYDYWGQGTQVTVSS,low polyreactivity
3,QVQLVESGGGLVKSGGSLRLSCAASGGTFKPNVMGWYIQAPGKERELVAAITSGGSTYYADSVKGRFTISRDNAKNTVYLQMNSLKPEDTAVYYCAASSLRRYGYNYWGQVTQVTVSS,high polyreactivity
4,QVQLVESGGGLVQAGGSLRLSCAASGRTFVIYARGWYRQAPGKEWALVAAINWRGGSTYYADSVKGRFTISRDNAKNTVYLQMNSLKPEDTAVYYCAADTGWWWLYDYWGQGTQVTVSS,high polyreactivity
5,QVQLVESGGGLVQAGGSLRLSCAASGSTFVKYAMGWYRQAPGKERELVAAISGYSGRTYYADSVKGRFTISRDNAKNTVYLQMNSLKPEDTAVYYCAAEWDDGRSWYWYYLVGFEYWGQGTQVTVSS,high polyreactivity
6,QVQLVESGGGLVQAGGRLRLSCAASGFPFAVYAMGWYRQAPGKERELVATITSAGSTYYADSVKGRFTISRDTAKNTVYLQRNSLKPEDNEVYYCAAAGTYYRGDYGYWGQGTQVTVSS,low polyreactivity
7,QVQLVESGGGLVQAGGSLRLSCAASGRIFLGYTMGWYRQAPGKERELVASMTWSGGSTYYADSVKGRFTISRDKAKNTVYVQMNSLKPEDTAVYYCIAVFWVARGRYDYWGQGTQVTVSS,high polyreactivity
8,QVQLVESGGGLVQAGGSLRLSCAASGSIFYYNAMGLYIQAPGKERELVAAITSSGGSTYYADSVKGRFTISRDNAKNTVYLQMNSLNPEDTAVYYCNNDTLVYGYVQDSEYWGQGTQVTVSS,low polyreactivity
9,QVQLVESGGGLVQAGGSLRLSCAASGRTIYSNAMGGYRQAPGKERELVAAITGSSGSTYYADSVKGRFTISRDNAKNTVYLQMNSLKPEDTAVYYCAASCYCSLVRQLRLRGQGTQVTVSS,low polyreactivity
10,QVQLVESGGGLVQAGGSLRLSCAASGSIFPGYAMGWYRQAPGKERELVATITYSDGSTYYADSVKGRFTISRDNAKNTVSLQMNSLKPEDTAVYYCNAASRGAGTSIWSWYDHWGQGTQVTVSS,low polyreactivity
11,QVQLVESGGGLVQAGGSLRLSCAASGRIVVYNVMGGYRQAPGKERELVAAISWGTGSTYADSVKGRFTISRDNAKNTVYIQMNSLKPEDTAVYYCAADSFIPPYDHWGQGTQVTVSS,low polyreactivity
12,QVQLVESGGGLVQAGGSLRLSCAASGLILYSYTMGRYRHAPGKERELVAVISRSGTSTYYADSVKGRFTISRDNAKNTVYLQMNSLKREDTSFYFCAALSRSGPYAYEYWGQGTQVSVSS,high polyreactivity
13,QVQLVESGGGLVQAGGSLRLSCAASGRTFGDKAMGWYRQAPGKERELVAAISWSGGRTYYADSVKGRFTISRDNAKNTVYLQMNSLKPEDTAVYYCAARNNRYPLYNYWGQGTQVTVSS,low polyreactivity
14,QVQLVESVGGLVQAGGSLRLSCAASGSTFGRNAMGWYRQAPGKERELVAAISSRGGGTYYADSVKGRFTISRDNAKNTVYLQMNSLKPEDTAVYYCAATYGYRRRNHYNYWGQGTQVTVSS,high polyreactivity
15,QVQLVESGGGLVQAGGSLRLSCAASGSIFYSYAMGWYRQAPGKERELVAAITSRTGNTYYADSVKGRFTISRDNAKNTVYLQMNSLKPEDTAVYYCAAKLVNALLHYRIWNHNNYWGQGTQVSVSS,low polyreactivity
16,QVQHVESGGGLVQAGGSLRLSCAASGSTIILNAMGWYRQAPGKERELVATISSSDTSTYYADSVKGRFTISRDNANNTVYLQMNSLKPEDTAVYYCNADYYTTSYLQRVIHYGVEYDYWGQGTQVTVSS,low polyreactivity

row,Sequence,polyreactivity (PSR sort gate)
1,QVQLVESGGGLVQAGGSLRLSCAASGSILGGNAMGWYRKAPGKERELVAAITFSGGGTYYADSVKGRFTISRDNAKNTVYLHMNSLKPEDTAVYYCAADKDGYTYEFDYWGQGTQGTVSS,low polyreactivity
2,QVQLVESGGGLVQAGGSRRLSCAASGIIFTRNSMGWYRQAPGKERELVAAISRSGGRTYYADSVKGRFTISRDNAKNTVYLQMNSLKPEDTAVYYCYPRDKNLQAYDYWGQGNQVTVSS,high polyreactivity
3,QVQLVESGGGLVQAGGSIRLSCAASGFIFQRYSMGWYRQAPGKERELVAAISSSGGSTYYADSVKGRFTISRDNAKNTVYLQMNSLKPEDTAVYYCAARVPPRTLAYYYWGQGTQVTVSS,high polyreactivity
4,QVQLVESCGGLVQAGGSLRLSCAASGRTFYKNTMGWYRQAPGKERELVATISQRGGSTYYADSVKGRFTISRDNAKNTVFLQMHSLKPEDTAVYYCNARHYYIWWRSPTRTAMNYWGQGTQVTVSS,high polyreactivity
5,QVQLVESGGGLVQAGGSLRLSCAASGFTFPNAMGWYRQAPGKERELVATISSSGGSTYYADSVKGRFTISRDNAKNTVYLQMNSLKPEDTAVYYCAARTRQYWIYRAYRDDYWGQGTQVTVSS,low polyreactivity
6,QVQLVESGGGLVQAGGSLRLSCAASGRTFPFNAMGWYRQAPGKERELVAVINSGGSTYYADSVKGRFTISRDNAKNTVYLQMNSLKPEDTAVYYCNAYSSRYRYNYWGQGTQVTVSS,high polyreactivity
7,QVQLVESGGGLVQAGGSLRLSCAASGITFLFYAMGWYRQAPGKERELVAAISRSGGSTYYADSVKGRFTISRDNAKNTVYLQMNSLKPEDTAVYYCAARSKDGGGPMYYWGQGTQVTVSS,high polyreactivity
8,QVQLVESGGGLVQAGGSLRLSCAASGFTSSRNAMGWYRQAPGKERELVAAISSGTSTNYADSVKGRFTISRDNAKNTVYLQMNSLKPEDTAVYYCAAGSYSRYLYSLYFDFDYWGQGTQVTVSS,low polyreactivity
9,QVQHVESGGGLVQAGGSLRLSCAASGSIFKPYAMGWYRLAPGKEREFVAAITSSDGTTYYADSVKGRFTISRDNAKNTVYVQMNSLKPEDTAVYYCNAEYYAKYVPFTKYYYWGQGTQVTVSS,low polyreactivity
10,QVQLVESGGGLVQAGGSLRLSCAASGFIFRFNAMGWYRQAPGKERELVAAITYRGITYYADSVKGRFTISRDNAKNTVYLQMNSLKPEDTAVYYCAKRTSARGLYGVYFGRYEYWGQGTQVTVSS,high polyreactivity
11,EVQLEESGGGLVQAGGSLRLSCAASGSTFYQYALGWSRQAPGKERELVAAITTIGGRTYYADSVKGRFTISRDNAKNTVYLQMNSLNPEDTAVYYCAAGYRAWEPYGHYGYWGQGTQVTVSS,high polyreactivity
12,QVQLVESGGGLVQAGGSLRLSCAASGSIFPHNTMGWYRQAPGKERELVAAITRDGTSTYYADSVKGRFTISRDNAKNTVYLQMNSLKPEDTAVYYCAARRARSFYVTYYGVGFNYWGQGTQVTVSS,low polyreactivity
13,QVQLVESGGGLVQAGGGLRLSCAASGRIFAGYAMGWYRQAPGKEREFVAAISRSGVSTYYADSVKGRFTISRDNAKNTVYLQMNSLKPEDTAVYYCNVYKGNVVEHDYWGQGTQVTVSS,high polyreactivity
14,QFQLVESGGGLVQAGGSLRLSCAASGRIYGYYALGWYRQAPGQERELVATITFGGGSTYYTDSVKGRFTISRDNAKNTVSLQMNSLKPEDTALYYCAADSGYLGIYGDEYSWGHGTQVTVSS,low polyreactivity
15,QVQLVESGGGIVQAGGTLRLSCAASGIIFGSYAMGWYRQEPGKERELVAAINSSGGSTHYADSVKGRFTISRDNSKNTVYLQMNSLKPEDTAVYYCAADGYWRDYSGYWDYYYIYDYCGQGTQVTVSS,low polyreactivity
